Laboratory results: patent US7413870B2, “SAK: modulation of cellular proliferation for treatment of cancer” (Rigel Pharmaceuticals, Incorporated, priority 2001, dated 2008)
Where two headings read alike, the source gives them in different places.

Legend:
normal cells = assay: antiproliferative effect of SAK wild type/mutants in normal cells (GFP positivity, cell tracker); format: cell-based
H1299 cells = assay: antiproliferative effect of SAK mutant in H1299 cells; format: cell-based
CHO cells = settings: overexpression in CHO cells; cited from earlier work

B1: SAK wild type: wild type human SAK serine/threonine kinase (SEQ ID NO:2), overexpressed in cells (protein, UniProt O00444 1-970, looked up)
Serine/threonine-protein …: MATCIGEKIEDFKVGNLLGKGSFAGVYRAESIHTGLEVAIKMIDKKAMYKAGMVQRVQNEVKIHCQLKHPSILELYNYFEDSNYVYLVLEMCHNGEMNRYLKNRVKPFSENEARHFMHQIITGMLYLHSHGILHRDLTLSNLLLTRNMNIKIADFGLATQLKMPHEKHYTLCGTPNYISPEIATRSAHGLESDVWSLGCMFYTLLIGRPPFDTDTVKNTLNKVVLADYEMPSFLSIEAKDLIHQLLRRNPADRLSLSSVLDHPFMSRNSSTKSKDLGTVEDSIDSGHATISTAITASSSTSISGSLFDKRRLLIGQPLPNKMTVFPKNKSSTDFSSSGDGNSFYTQWGNQETSNSGRGRVIQDAEERPHSRYLRRAYSSDRSGTSNSQSQAKTYTMERCHSAEMLSVSKRSGGGENEERYSPTDNNANIFNFFKEKTSSSSGSFERPDNNQALSNHLCPGKTPFPFADPTPQTETVQQWFGNLQINAHLRKTTEYDSISPNRDFQGHPDLQKDTSKNAWTDTKVKKNSDASDNAHSVKQQNTMKYMTALHSKPEIIQQECVFGSDPLSEQSKTRGMEPPWGYQNRTLRSITSPLVAHRLKPIRQKTKKAVVSILDSEEVCVELVKEYASQEYVKEVLQISSDGNTITIYYPNGGRGFPLADRPPSPTDNISRYSFDNLPEKYWRKYQYASRFVQLVRSKSPKITYFTRYAKCILMENSPGADFEVWFYDGVKIHKTEDFIQVIEKTGKSYTLKSESEVNSLKEEIKMYMDHANEGHRICLALESIISEEERKTRSAPFFPIIIGRKPGSTSSPKALSPPPSVDSNYPTRERASFNRMVMHSAASPTQAPILNPSMVTNEGLGLTTTASGTDISSNSLKDCLPKSAQLLKSVFVKNVGWATQLTSGAVWVQFNDGSQLVVQAGVSSISYTSPNGQTTRYGENEKLPDYIKQKLQCLSSILLMFSNPTPNFH
- antiproliferative activity (normal cells): do not have significant antiproliferative activity
- antiproliferative effect (normal cells; GFP positivity studies): no antiproliferative effect
- antiproliferative activity (normal cells; listed as wild type SAK): neither wild type nor mutant SAK is antiproliferative

B2: SAK K41M mutant: mutant SAK (K41M) serine/threonine kinase, overexpressed in cells in dominant negative studies (protein, UniProt O00444 1-970, looked up, variant K41M)
Serine/threonine-protein …: MATCIGEKIEDFKVGNLLGKGSFAGVYRAESIHTGLEVAIMMIDKKAMYKAGMVQRVQNEVKIHCQLKHPSILELYNYFEDSNYVYLVLEMCHNGEMNRYLKNRVKPFSENEARHFMHQIITGMLYLHSHGILHRDLTLSNLLLTRNMNIKIADFGLATQLKMPHEKHYTLCGTPNYISPEIATRSAHGLESDVWSLGCMFYTLLIGRPPFDTDTVKNTLNKVVLADYEMPSFLSIEAKDLIHQLLRRNPADRLSLSSVLDHPFMSRNSSTKSKDLGTVEDSIDSGHATISTAITASSSTSISGSLFDKRRLLIGQPLPNKMTVFPKNKSSTDFSSSGDGNSFYTQWGNQETSNSGRGRVIQDAEERPHSRYLRRAYSSDRSGTSNSQSQAKTYTMERCHSAEMLSVSKRSGGGENEERYSPTDNNANIFNFFKEKTSSSSGSFERPDNNQALSNHLCPGKTPFPFADPTPQTETVQQWFGNLQINAHLRKTTEYDSISPNRDFQGHPDLQKDTSKNAWTDTKVKKNSDASDNAHSVKQQNTMKYMTALHSKPEIIQQECVFGSDPLSEQSKTRGMEPPWGYQNRTLRSITSPLVAHRLKPIRQKTKKAVVSILDSEEVCVELVKEYASQEYVKEVLQISSDGNTITIYYPNGGRGFPLADRPPSPTDNISRYSFDNLPEKYWRKYQYASRFVQLVRSKSPKITYFTRYAKCILMENSPGADFEVWFYDGVKIHKTEDFIQVIEKTGKSYTLKSESEVNSLKEEIKMYMDHANEGHRICLALESIISEEERKTRSAPFFPIIIGRKPGSTSSPKALSPPPSVDSNYPTRERASFNRMVMHSAASPTQAPILNPSMVTNEGLGLTTTASGTDISSNSLKDCLPKSAQLLKSVFVKNVGWATQLTSGAVWVQFNDGSQLVVQAGVSSISYTSPNGQTTRYGENEKLPDYIKQKLQCLSSILLMFSNPTPNFH
- antiproliferative activity (normal cells): does not have strong antiproliferative effects
- antiproliferative effect (H1299 cells): weak antiproliferative effect

B3: wild type mouse SAK: wild type mouse SAK overexpressed in CHO cells, from cited U.S. patents (protein, UniProt Q64702 1-925, looked up)
Serine/threonine-protein …: MAACIGERIEDFKVGNLLGKGSFAGVYRAESIHTGLEVAIKMIDKKAMYKAGMVQRVQNEVKIHCQLKHPSVLELYNYFEDNNYVYLVLEMCHNGEMNRYLKNRMKPFSEREARHFMHQIITGMLYLHSHGILHRDLTLSNILLTRNMNIKIADFGLATQLNMPHEKHYTLCGTPNYISPEIATRSAHGLESDIWSLGCMFYTLLIGRPPFDTDTVKNTLNKVVLADYEMPAFLSREAQDLIHQLLRRNPADRLSLSSVLDHPFMSRNPSPKSKDVGTVEDSMDSGHATLSTTITASSGTSLSGSLLDRRLLVGQPLPNKITVFQKNKNSSDFSSGDGSNFCTQWGNPEQEANSRGRGRVIEDAEERPHSRYLRRAHSSDRASPSNQSRAKTYSVERCHSVEMLSKPRRSLDENQHSSNHHCLGKTPFPFADQTPQMEMVQQWFGNLQMNAHLGETNEHHTVSPNRDFQDYPDLQDTLRNAWTDTRASKNADTSANVHAVKQLSAMKYMSAHHHKPEVMPQEPGLHPHSEQSKNRSMESTLGYQKPTLRSITSPLIAHRLKPIRQKTKKAVVSILDSEEVCVELLRECASEGYVKEVLQISSDGTMITVYYPNDGRGFPLADRPPLPTDNISRYSFDNLPEKYWRKYQYASRFIQLVRSKTPKITYFTRYAKCILMENSPGADFEVWFYDGAKIHKTENLIHIIEKTGISYNLKNENEVTSLKEEVKVYMDHANEGHRICLSLESVISEEEKRSRGSSFFPIIVGRKPGNTSSPKALSAPPVDPSCCKGEQASASRLSVNSAAFPTQSPGLSPSTVTVEGLGHTATATGTGVSSSLPKSAQLLKSVFVKNVGWATQLTSGAVWVQFNDGSQLVVQAGVSSISYTSPDGQTTRYGENEKLPEYIKQKLQCLSSILLMFSNPTPNFQ
- antiproliferative effect (CHO cells): antiproliferative
